± gives the uncertainty stated by the source.
Experiment: self-splicing fitness, log relative to wild type (ln ratio); higher = more splicing; Tetrahymena group I intron in knt gene, E. coli kanamycin selection, DiMSum; sequences stand for … in CUCUCU…GGAGGGAAAAGUUAUCAGGCAUGCACCUGGUAGCUAGUCUUUAAACCAAUAGAUUGCAUCGGUUUAAAAGGCAAGACCGUCAAAUUGCGGGAAAGGGGUCAACAGCCGUUCAGUACCAAGUCUCAGGGGAAACUUUGAGAUGGCCUUGCAAAGGGUAUGGUAAUAAGCUGACGGACAUGGUCCUAACCACGCAGCCAAGUCCUAAGUCAACAGAUCUUCUGUUGAUAUGGAUGCAGUUCACAGACUAAAUGUCGGUCGGGGAAGAUGUAUUCUUCUCAUAAGAUAUAGUCGGACCUCUCCUUAAUGGGAGCUAGCGGAUGAAGUGAUGCAACACUGGAGCCGCUGGGAACUAAUUUGUAUGCGAAAGUAUAUUGAUUAGUUUUGGAGUACUCGUGGUCG
Procedure, shortened: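 Six replicate transformations of E. coli BL21(DE3) with a pET-22b(+) library were grown overnight at 37°C or 30°C. The library randomised all eight P1ex-region intron nucleotides, the intron lying in the knt kanamycin-resistance gene, and plates were LB agar with or without 25 μg/mL kanamycin plus 100 μg/mL carbenicillin, 50 μM IPTG and 0.2% rhamnose. Pooled colonies were amplicon-sequenced on an Illumina HiSeq 2500, and fitness is the DiMSum error-weighted combination of wild-type-normalised replicate fold changes, kanamycin versus none.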

Sequence	self-splicing fitness (ln) (30 °C)	self-splicing fitness (ln) (37 °C)
AACUAGCAAUAUUACGGAUU	-1.16 ± 0.088	-0.792 ± 0.1
AACUAGCAAUAUUACGGCCG	-0.725 ± 0.1	0.273 ± 0.13
AACUAGCAAUAUUACGGGCA	-0.872 ± 0.079	-0.13 ± 0.088
AACUAGCAAUAUUACGGUCU	-0.472 ± 0.055	0.465 ± 0.07
AACUAGCAAUAUUACGGUUU	-3.29 ± 0.12	-2.62 ± 0.17
AACUAGCAAUAUUACGUAGA	-1.76 ± 0.079	-0.779 ± 0.11
AACUAGCAAUAUUACGUCUU	0.0966 ± 0.067	0.781 ± 0.083
AACUAGCAAUAUUACGUUAC	-1.79 ± 0.13	-1.96 ± 0.2
AACUAGCAAUAUUACGUUAG	-3.12 ± 0.17	-3.33 ± 0.26
AACUAGCAAUAUUACGUUCA	-1.3 ± 0.1	-0.728 ± 0.12
AACUAGCAAUAUUACGUUCU	-1.55 ± 0.061	-1.14 ± 0.079
AAGAAGCAAUAUUACGAACG	-0.96 ± 0.11	-0.286 ± 0.14
AAGAAGCAAUAUUACGACAG	-2.2 ± 0.11	-0.487 ± 0.1
AAGAAGCAAUAUUACGACUU	-0.363 ± 0.061	-0.819 ± 0.078
AAGAAGCAAUAUUACGAGUA	-0.78 ± 0.26	-1.44 ± 0.21
AAGAAGCAAUAUUACGCAGA	-2.35 ± 0.17	-1.5 ± 0.11
AAGAAGCAAUAUUACGCCAU	-2.82 ± 0.24	-2.62 ± 0.27
AAGAAGCAAUAUUACGCCCA	-0.613 ± 0.21	-1.85 ± 0.44
AAGAAGCAAUAUUACGCCGA	-0.879 ± 0.12	-0.757 ± 0.15

Sequence	self-splicing fitness (ln) (30 °C)	self-splicing fitness (ln) (37 °C)
AAGAAGCAAUAUUACGCCUA	-0.339 ± 0.12	-0.209 ± 0.13
AAGAAGCAAUAUUACGCGAC	-3.25 ± 0.24	-1.53 ± 0.13
AAGAAGCAAUAUUACGCGAG	-0.936 ± 0.081	-0.561 ± 0.1
AAGAAGCAAUAUUACGCGUA	-1.39 ± 0.099	-0.914 ± 0.082
AAGAAGCAAUAUUACGGAGC	-3.35 ± 0.24	-2.66 ± 0.23
AAGAAGCAAUAUUACGGAUU	-1.37 ± 0.097	-0.421 ± 0.12
AAGAAGCAAUAUUACGGGUA	-2.35 ± 0.16	-0.422 ± 0.12
AAGAAGCAAUAUUACGGGUU	-1.57 ± 0.15	-1.41 ± 0.14
AAGAAGCAAUAUUACGUAUU	-2.28 ± 0.16	-1.43 ± 0.12
AAGAAGCAAUAUUACGUCCG	-0.7 ± 0.073	-0.283 ± 0.099
AAGAAGCAAUAUUACGUCCU	-0.0351 ± 0.12	0.363 ± 0.16
AAGAAGCAAUAUUACGUCGU	-1.31 ± 0.058	-0.567 ± 0.073
AAGAAGCAAUAUUACGUCUC	-2.04 ± 0.12	-1.69 ± 0.16
AAGCAGCAAUAUUACGAACA	-1.56 ± 0.13	-0.603 ± 0.13
AAGCAGCAAUAUUACGAACG	-2.31 ± 0.094	-0.98 ± 0.11
AAGCAGCAAUAUUACGAACU	-0.292 ± 0.07	-1 ± 0.069
AAGCAGCAAUAUUACGACCA	-0.635 ± 0.12	-0.265 ± 0.14
AAGCAGCAAUAUUACGAGAG	-4.01 ± 0.29	-2.49 ± 0.25

Source: the supplement of paper PMC7877785
